According to the DeepSol protein solubility set:

Assay: soluble on expression in E. coli; label from the status in PepcDB or PDB records

Sequence	soluble on expression in E. coli
MNVPGAAPFLTAQSEEEATEVLESIHPDPEKSGARYIMSDERMAVDIFMAMPEWTLDTEGYMQPYWTGDGYQYLPSKRYFDSMESRLHFLDGNGLKQYRLVYETWAYQTQEAGYKQVYNFLYGSSIPEVDSGYVKIFEYVKGAKITGTVSPNETVNINTTILTGQGRTFELEHHHHHH	soluble
VDEPESMVNLAFVKNDSYEKGPDSVVVHVYVKEICRDTSRVLFREQDFTLIFQTRDGNFLRLHPGCGPHTTFRWQVKLRNLIEPEQCTFCFTASRIDICLRKRQSQRWGGLEAPAARVGGA	soluble
SGVDRVLVKSEAWADNRLPLTEAELALIATPPEDSDMASLQQQRQEQNYFVRLGSLSERLRNHAYEHSLGKLQNARQKAQETLQQLTSVLGLMESVKQGVDQRLGEGQEKLHQMWLSWNQKTPQDAEKDPAKPEQVEARALSMFRDITQQLQSMCVALGASIQGLPSHVREQAQQARSQVNDLQATFSGIHSFQDLSAGVLAQTRERIARAREALDNTVEYVAQNTPAMWLVGPFAPGITEKTPEGK	soluble
MNTLGLYQSDWSKAPPHAHAYHVKTTREQGHYHLIEGFTQPANGSNTDQHTHYYTGITSFENGHFHRYYGISGPAIPLADGTHYHEIEETTYLAYNEPIEIQYGGVVYDPGDDRRKTHRHTLKGKTREIVGNEPLGR	soluble
MGSDKIHHHHHHMDSYSDVKMGEYEPTWRSGMAKSITFIVTEDCQLRCGYCYIIGKNKFNRMSFTIARTAVDYILHNRALFWEDSVIWDFIGGEPLLEIELIDRICDYIKRRMYELDHPWFNSYRFSFSTNGLLYGTEKVQRFIRKNAHHLSISISIDGTRKKHDAQRVFPDGSGSYDAVVKNVPLWLKQFPNASTKATVAHDDLPLLKESVIHLWQLGLKNVTINLVNENIWEPGDDIIYETQLRELADYIVENDLYDTHNCSFFSKSIGKPLDCKTDNGNWCGSGKMLAIDGDGVFYPCVRFAPYSMRYKPARSIGNCFDGLDMNRVRPFLVLNRSMQSPEECIACDVASGCAWCQGNNYDLAATDTIYQRAVYTCAMHKARVRANRYFGEKLADRLGRERPVEAR	not soluble
MGSDKIHHHHHHSSDYFTTNPEVLEAIGGKVPVTINGKFPEKYFKKNATVEVTPVLRWKGGEAKGQPAVFQGEKVEGNNQTIAYKAGGSYTMKASFDYVPEMANSELYLDFKITKGKKSYTIPSVKIADGVIATSELPTAASSNASYANDAFQRIIKDAQTANIMFLIQQANLRNSELNSDDIKEFHKKVAEINADTKNYKLNNIEISAYASPDGGVELNTGLAENREANTEKYMERQLKKGKIDTNLDAKYTAQDWEGFQELVSKSNLQDKDLILRVLSMYNDPEQREAEIKNISSVYKTLADEILPQLRRARLTANYDIIGRSDDEINEAFNSDPKVLSVEELLYAATLTNDNARKEAIFTKTTQLYPNDFRAYNNLGELAFAAGDAAKAESYFKQAASKNANAPEVNANLGLCELVKGNVAAAETYLGKATGANAAGEALGNLYIKQGQYDRAVNSFGDAKTNSAAQAQILAKDYNKAKATLSAIKNPDAMTDYLMAIVGARTNNASLVSSSIKSAIAKDPSMAEKAANDREFAKYADAIK	not soluble
MGSDKIHHHHHHMMTSTPRLLQAIQQTTTAILKTNLVGIYLHGSYVLGSYNEQVSDLDYLIVVRRSLTLAEKRQLMTATITQLWPLAPHKGLEFHVLLLSATQHFVHPCPFDFHFSKYHYEDYQRTPLAYLKAMHGTDPDLAAHLTILQAAGQVLLGPAITTVFGPIPAVAYWDSIKSDIANAETAIVQLPMYTVLNLCRVRAYQQDQLIISKQAGGEWGLQQLPTQWHPLIRQALAAYAGQQDEQVIRWSRPNLVAFARIMLAELGLKSE	not soluble
MADYADAVVTQESALTTSPGETVTLTCRSSTGAVTTSNYASWVQEKPDHLFTGLIGGTNNRAPGVPARFSGSLIGDKAALTITGAQTEDEAIYFCALWYSNHWVFGGGTKLTVLGGGGGSGGGGSGGGGSGGGGS	soluble
LFQKLHQSLQVGEKEEDMYELLISSSMTTVMADAAWLEIRDNKGGLKAFQNSNIDEYDVFEIKKALRKNQVNISSEPQYIKDILSYPHTEKIKHLDYKSFLLIPLTSNNQLIGTLVLLKNLNDGFDKEMVDIIFTFVSQASISIKNFRLMSDAIQTERYQEELKIAKD	not soluble
MVLDIDMFRTEKGGNPEIIRKSQQDRFKDPKLVDEVIELDEKWRKERFVADQLNRQKNAISKAIGEKMKKKEPQGTDDSVADDIVARLAELKIDELSQLTVVQLKKLRVLVDEKSVQTAAAVIANENARHEKLIQIGNLIHSSVVVSKDEANNKIERTFGDLSTKKKYSHVDLVVMVDGFDGERGTVVAGGRGYFLKGPLVFLEQAIIQLALQRLNVKGYVPLYTPFFMRKEVMQEVAQLSQFDDELYKVSSKGSEIAGDTSVDEKYLIATSEQPIAAYHRNEWIKETELPIKYAGVSTCFRQEVGSHGRDTRGIFRVHQFEKIEQFVLCSPNDNESWTLFDEMIGNAESYYQELQIPYQVVNIVSGELNNAAAKKFDLEAWFPGSGAYRELVSCSNCLDYQSRRLKVRYGQTKKLSGEVPFVHMLNATMCATTRVICAILENNQTEEGINVPTAIQQWMPENYRTFIPFVKPAPIDEDAKKATGKK	not soluble
MGSDKIHHHHHHMTHFGVDLWDRFTTRIGEARETLRAAGAPTGLLDQAEGARYLSRIVRLGLEMYLEGGDPDFPSFVLPSHATAKLGGDNPDNLYLSATILGDRSYRLTGNIGSVHYLSIGSKANRYAIDGTMASTGELQKEAFRADANGDFTVIASVKRPEGDVAWLPLAPDSNILQVRQTFLNRARETPARFAIERISEGLAHPAPTDPLAIERRMMAAADFVVNATRMFASWTAMFMPYPNEMRDWGQDMFHKAGGDPAIFYVHGYWKLAPGERLLIETDVPECEHWNIQVDNWWMESMDYRYLPACINAGNAEREADGSVRIVLAADDPGERNWLTTHGHSEGHLLLRWVRAASHPIPKLTLLRD	not soluble
NVDKAIKFGQIQNKAVTLGQGGFFNDDFSDGQAGVHYPDLDNAEPMPESEKLQYEKRLVGFYLSHHPLDRFRRDWEAFASLTLDKRDVTPSKL	not soluble
SLTHYKYYEANVETNQVLVFLHGFLSDSRTYHNHIEKFTDNYHVITIDLPGHGEDQSSMDETWNFDYITTLLDRILDKYKDKSITLFGYSMGGRVALYYAINGHIPISNLILESTSPGIKEEANQLERRLVDDARAKVLDIAGIELFVNDWEKLPLFQSQLELPVEIQHQIRQQRLSQSPHKMAKALRDYGTGQMPNLWPRLKEIKVPTLILAGEYDEKFVQIAKKMANLIPNSKCKLISATGHTIHVEDSDEFDTMILGFLKEEQND	soluble
MTEKKFIQDPWAKMTTRNGLAGDEVISALQKSIRRGKEKDACEFAYEMYITSPQFEEKLWRRLLAISVEDIGMGNPIAALMINNLNMMRKEFQYNESDRAMFFFHAIRYLCGSEKDRSSDLLKNIVIKSFAMGYVPEIPDIALDKHTTRGQEMGRGSEHFLHEASKVIPQAKVENDYKEQYEEIIKKYDPNHVVPSTFVFNPWQVLEHHHHHH	not soluble
MGSDKIHHHHHHMTRKQFETLDLDNLEQNLQQAAELIAGRIRAIACDPVKQNISFEELAAIIPCDLPDEGHGPEAVIGEVARHIEPYSTRIGHPRFLAWITTSPGPAGTIGDMLCTGLNQAPLSFKGGPAATVLEEIVLGWFAGMFGMPEGWGGTIVSGGTMANLMGLTVARRVHAPQVHARGMQGLERPLVLYVSDQGHMSVTRSAVLLGIGEDNVRAVPSDSACRMIPHELEKAVQQDRRAGRLPFCVVAQAGSVTTGAVDPLPDIAAICRRENMWMHVDAAYGGAVMLADELRPLLAGIELADSVCVDPHKWFFVPLECGITLFRSREQQLETFRAKAAYLGAENPHDLKNTTFILSRANRALKVWFAFRSYGRLRIARIIRRNMELARQLYRLMCDHPEWEPLAPAPLSIVCGRYTPSAAVRGGWTEQQIDDLQLQMIEELERSGTALLTPAAVNGRAGVRVCIANHRTTPEDITLIFNTLTAIGTRIARPDEHETAGE	not soluble
MSFYSAHQLALALEGLQRALDEIGIYSDILEDALLIACNVPVAEKTSILNDFQRADTINYGGLAAAIRANLAPDVCERRITEFQKKYAHGTDDQRLELLSDESVWRLEAYEAFADAEPLSTLEKIRLGVIGGPIDSIDPNWPLRKIAPERFLNDRWSRAVHDPRRIRRKIIGHRLPYRTKAEPDVPYGIPKRARLAARENSGPVRAPPLLGGAHPGQFRARGPAGVGVVSRHTRQFGAARGVLRGPTGNRVVPLFPVQIRARPPAPSQTIIRVQETERVKLEPTDNSYEEQKPPLLEN	not soluble
MGSDKIHHHHHHMSDAAIAQDLAALAAQLQTLAGLQGKRDIQAAAASLPHRPFPKLGLAAALGDDAALLPATANRLLFACEGIHPDLVAEDPWFAGWSGVLVNLSDIAAMGGRPIAVVNSLWSRDRQHADQVFAGLQFAAEKFGIPIVGGHSNLQSPYSALSVAVLGQVGPHVLSARSAQAGDRCYLLINRDGQFYRHYPFWDAATGTAPEQLRRHWELMAQLADAGLVSAAKDVSMGGLIGTAVMFAETSGAGLDLHLDRLSYPAGVSRDRWLTCFPSFGFLLAVPEACCDRFLQRVATEPDLTCDHLGSFTNTGQVRLCDRQAQVCFWDCQEQSLMGFSALTDPESPH	not soluble
MSLYYINLKQERILKFIEKFGVARIEHMKRILNIKDIDNQFKILIRQRKVKLVFNDICVLDGKKELNIKMIKALDLYSYLHLNNGGIPIEWCMPQDFPFTIAFFRNSKVFDVAIINEGEETIYSSAINRGVSERVIVVLSEENQKENIKINKQIKCCTIEDGVLNFEGHHHHHH	not soluble
MPILQELRLGKRISRDISLADLYQEWIELKILPSSRSEETKKKYLLRKNTIERLFGNKKVTQIRASEYQRIMNKYGQTVGRNFLGRLNTGIHQSIQMAIADKVLIDDFTQHVELFSSKEQQMTLEHHHHHH	not soluble
MEKSEIQKVDQVIRAWLEDEPLMYERLLEVEALEALPQVLGPLYKFLGRSRIHDGVLYLTFNSSVVRSQLSNNKAELLLRLNTAVDAELIRQIVFL	not soluble
MSLGMTHSFITEWDNTPKTKMRFSREVSFAELQRVTNCMAKHEIPSIEDFIWVLKEAAKVLSTLPNNVHVIPEPNDRLIFVGDLHGCFETLIRLFLGYPQQNIPRTGFPGEIVDGRRLVYFFNGDFVDRGGSGYQIVFLLAYMAIACPGSCYLNRGNHESEMFGLSTQGMLGNKFMSEMAGKFSGMDPETYRPAIGEFFCALPIAHTIDRNIFMVHGGVPLGDDLSNVPRAAPQSYFSTGSPAPIPKGLKPYKISNLDNLTPSRQKTTNFEDNPRKQNELWHSFVWNYDRLPYSADFMEENNFKTMVHSHTATPFHQITSFLPLEKTSGEKYSIQSVIKNQEMFDRMKAFFASHQLANSSKLSILEIFSSPTEGHHHHHH	not soluble
MGVYGMEQNFGLISIIMAAYNAENTIEKAVMSVMAQTYTQFELIIINDCSTDKTLSIIKKFEEFDKRIFLINNSYNRGVSYSRRYGLEKARGEWIAILDSDDAWAADKLEKQIRLQKEKNADLVYTGSAFMDSSGNSIEWYLHVPPEIGYRKLLKQNLISNSSALVRKELYMQYYASGDNMHEDFAIWLRILKTGRKAYGIDEPLLIYRFMRKSKSGNKLIAAKMNWNTYRYIGLDVVSRMYYMIWYMFNGLKKYITLNNEVAKV	not soluble
MNQYSSFSPSSPSSSSRPSGGGGQSSHQTTPKSSGNPRQQQAQPRHRQRKAQSSSPASLAAFASSSVCSSPSARNVPLPPVEWLNQLQVPGQLENSSRPSSSISMTSSASSSTSSLSSSDAPMITMTPRRAAQKEMKPKTDVLGVRVCPLQLIAAIASA	not soluble
